B1: high affinity PDL-1 molecule L3C7a (ligand)
chain: FTVTVPKDLYVVEYGSNMTIECKFPVEKQLDLAALEVHWFMEDKNIFSFVHGEEDLKVQHSSYRQRARLLKDQLSLGNAALQITDVKLQDAGVYTCLIGYKGADYKRITVKVNAPYNKINQRILVVDPVTSEHELTCQAEGYPKAEVIWTSSDHQVLSGKTTTTNSKREEKLFNVTSTLRINTTTNEIFYCTFRRLDPEENHTAELVIPEL
B2: high affinity PDL-1 molecule L3C7b (ligand)
chain: B1 chain with T95V
B3: high affinity PDL-1 molecule L3D9 (ligand)
chain: B1 chain with E36N, H38F, F47I, S48Q, K101E
B4: high affinity PDL-1 molecule L22A5 (ligand)
chain: B1 chain with E36Q, F47P, T95R, L97M, G99S, K101G
B5: high affinity PDL-1 molecule L3G10 (ligand)
chain: B1 chain with E36T, H38A, F40Y, F47I, S48Q, K101D
B6: high affinity PDL-1 molecule L22D5 (ligand)
chain: B1 chain with E36Q, T95R, L97M, G99S, K101G
B7: high affinity PDL-1 molecule L22C7 (ligand)
chain: B1 chain with F47I, T95R, L97M, G99S, K101G
B8: high affinity PDL-1 molecule L32G5 (ligand)
chain: B1 chain with E36I, H38Y, F40E, F47I, S48Q, K101H
B9: high affinity PDL-1 molecule L3C7c (ligand)
chain: B1 chain with F1W
B10: high affinity PDL-1 molecule L3C7d (ligand)
chain: WTVTVPKDLYVVEYGSNMTIECKFPVEKQLDLAALEVHWFMEDKNIFSFVHGEEDLKVQHSSYRQRARLLKDQLSLGNAALQITDVKLQDAGVYTCLIGYKGGADYKRITVKVNAPYNKINQRILVVDPVTSEHELTCQAEGYPKAEVIWTSSDHQVLSGKTTTTNSKREEKLFNVTSTLRINTTTNEIFYCTFRRLDPEENHTAELVIPEL

From patent US20180291081A1 (GUANGZHOU INSTITUTES OF BIOMEDICINE AND HEALTH CHINESE …, published 2018) come the findings set out here.

Numbering of substitutions follows the chain as printed.

The test deals with T1, PD-1 molecule (refolded, purified and biotinylated PD-1 of Example 2) (UniProt Q15116 33-150, biotinylated with BirA enzyme (site not stated)).
T1 construct: also called Programmed Death-1
T1 sequence (Q15116 33-150 limits assumed): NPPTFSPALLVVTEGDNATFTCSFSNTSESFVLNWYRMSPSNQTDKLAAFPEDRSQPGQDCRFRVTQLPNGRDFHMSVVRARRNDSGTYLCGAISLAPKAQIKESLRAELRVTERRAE
Briefly: SPR (BIAcore T200), single-cycle kinetics; biotinylated PD-1 captured via streptavidin, PDL-1 variant in solution. On the procedure:
The anti-streptavidin antibody (GenScript) was added to the coupling buffer (10 mM sodium acetate buffer, pH 4.77). The antibody was then flowed through a CMS chip previously activated with EDC and NHS to immobilize the antibody on the chip surface. Finally, the unreacted activation surface was blocked with a solution of ethanolamine hydrochloride to complete the coupling process.
A low concentration of streptavidin is allowed to flow over the surface of the antibody-coated chip, then the biotinylated PD-1 is passed through the detection channel and the other channel is used as a reference channel. Then, 0.05 mM biotin was passed through the chip at a flow rate of 10 μL/min for 2 min to block the remaining binding sites of streptavidin. The single-cycle kinetic analysis method was used to measure its affinity. […] The binding time for each injection was 120 s, and it was disassociated for 600 s after the last injection. The chips were regenerated with 10 mMGly-HCl, pH 1.75 after each round of assays. Kinetic parameters were calculated using BIAcore Evaluation software.
In general terms: Surface plasmon resonance follows binding to a sensor surface in real time, without labels.
Take B1: the Kd worked out at 0.115 µM, the koff is 0.0139 s⁻¹ and the on-rate (kon) is 120000 M⁻¹ s⁻¹.

In turn, B2 gave a dissociation constant (Kd) of 0.123 µM, a koff of 0.0176 s⁻¹ and a kon of 143000 M⁻¹ s⁻¹.

As for B3, the equilibrium dissociation constant (Kd) was determined as 3.39 µM, the off-rate constant (koff) came out at 0.0871 s⁻¹ and the association rate constant (kon) came out at 25700 M⁻¹ s⁻¹.

Regarding B4, binding was put at a Kd of 4.84 µM, the dissociation rate constant (koff) came to 0.0559 s⁻¹ and the kon is 11500 M⁻¹ s⁻¹.

In turn, B5 gave a Kd of 11.8 µM, a koff of 0.263 s⁻¹ and a kon of 22200 M⁻¹ s⁻¹.

For the molecule B6, binding was characterised by a dissociation constant (Kd) of 6.48 µM, the koff stood at 0.268 s⁻¹ and the kon stood at 41400 M⁻¹ s⁻¹.

B7 showed a Kd of 11.9 µM, a koff of 0.133 s⁻¹ and a kon of 11200 M⁻¹ s⁻¹.

B8 came in with a Kd of 2.98 µM, a koff of 0.169 s⁻¹ and a kon of 56600 M⁻¹ s⁻¹.

As for B9, the Kd was found to be 0.106 µM, the koff was found to be 0.0155 s⁻¹ and the on-rate (kon) came out at 147000 M⁻¹ s⁻¹.

The molecule B10 had a Kd of 0.0539 µM, a koff of 0.0059 s⁻¹ and a kon of 109000 M⁻¹ s⁻¹.

The term Kd denotes the concentration at which binding is half-saturated. Low readings indicate tighter binding, high ones weaker binding. Usually koff stands for a measure of how fast the partners let go of each other. In general, kon refers to the rate constant with which the complex forms.
